Measured values from publication PMC12714742, “A small periplasmic protein governs broad physiological adaptations in Vibrio cholerae via regulation of the DbfRS two-component system” (Nature Communications, 2025).

B1: DbfQ, processed (residues 32 to 135, excluding the secretion signal), 6×His tag cleaved (natural protein)
chain: DNKVRDWEQGSYREGTQIEIDEDQDDVYRAVQKGLIRPFAELYATVDQQLNGRLIKVELDEDDDEWIYELKLVYDNQVFRVEYNAATLELMSIRGRNVIRAIKK
modifications: in the MST experiments only: covalently labeled with an amine-reactive Red-NHS dye
notes: DbfQ, small periplasmic PepSY-domain protein of Vibrio cholerae (135-amino-acid precursor, gene vc_1637); processed form, residues 32 to 135 without the secretion signal; also called cleaved DbfQ; DbfQ (6×His tag-cleaved)
B2: DbfS sensory domain, DbfS^SD-6×His (residues 43 to 171) (domain or fragment)
chain: NLIHQYLLEDVQNQLQLSMDEITANLEANPQGQLTLTTRLADPRFTQPYSGLYWSATLGDQTLRSRSLWDRFLTEETHVHGTIYLGAKEESLIVLKRTVYLPEFSQPITITIGLDDAPLKATLQRVSKE
notes: DbfS, sensor histidine kinase of the DbfRS two-component system of Vibrio cholerae (gene vc_1639); periplasmic sensory domain, residues 43 to 171; The vector is pET-15b; also called unlabeled DbfS; VC_1639; source: E. coli BL21 (DE3), pET-15b, purified (Ni-NTA)

Tests used:
[1] = molecular target: B2; test: MST; Red-NHS-labeled DbfQ constant at 20 nM, unlabeled DbfS 0.49 nM to 16,105 nM; buffer M (20 mM MES, 100 mM NaCl, 10% glycerol) with 0.05% Tween 20, pH 7.5, 25 °C; 1:1 binding model (PALMIST); conditions: both partners purified
[2] = molecular target: B1; test: MST; titration to saturation for stoichiometry: DbfQ-NHS 100 nM, unlabeled DbfS 0 nM to 40,000 nM, 25 °C; conditions: both partners purified

Row | Binder | Kd [1] [nM] | stoichiometry N [2]
1 | B1 | 30 | –
2 | B2 | – | 1
